Measured values: paper PMC3839849 (Journal of molecular biology, 2013)

Molecular target: CaV1.2 IQ domain TripleA mutant (CaV1.2 F1618A, F1619A, Y1622A) (human)
Experiment: ITC

B1: CaBP1 C-terminal lobe (domain or fragment)
chain: IGVKELRDAFREFDTNGDGEISTSELREAMRKLLGHQVGHRDIEEIIRDVDLNGDGRVDFEEFVRMMSR
With B1 the Kd was 221 nM, the dH was -1.45 ± 0.14 kcal/mol and the “stoichiometry N” value was 0.93 ± 0.01.
